The results in this text go back to patent US20150344570A1 (published 2015).

T1: FcγRIIa R (human, UniProt P12318 34-217)
T1 construct: extracellular domain; also called FcgRIIa R type; 2aR
T1 sequence (looked up): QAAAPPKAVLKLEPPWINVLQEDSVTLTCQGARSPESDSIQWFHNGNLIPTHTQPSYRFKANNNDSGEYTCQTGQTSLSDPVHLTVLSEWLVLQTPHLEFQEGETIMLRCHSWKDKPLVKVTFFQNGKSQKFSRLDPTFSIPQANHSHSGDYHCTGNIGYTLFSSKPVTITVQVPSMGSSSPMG

T2: FcγRIIb (human, UniProt P31994 43-217)
T2 construct: extracellular domain; also called FcgRIIb; 2b
T2 sequence (looked up): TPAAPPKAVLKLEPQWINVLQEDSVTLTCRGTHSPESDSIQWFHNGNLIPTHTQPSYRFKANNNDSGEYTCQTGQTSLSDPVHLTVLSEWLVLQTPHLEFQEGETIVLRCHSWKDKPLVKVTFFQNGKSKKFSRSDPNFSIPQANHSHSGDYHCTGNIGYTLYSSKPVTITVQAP

B1: GpH7-A5/GpH7-B3 variant E269_20W/GpL16-k0 (antibody, human IgG1, kappa)
heavy 1: not shown
heavy 2: not shown
light: DIVMTQSPLSLPVTPGEPASISCQASESLVHSNRNTYLHWYLQKPGQSPQLLIYKVSNRFSGVPDRFSGSGSGTDFTLKISRVEAEDVGVYYCSQNTHVPPTFGQGTKVEIERTVAAPSVFIFPPSDEQLKSGTASVVCLLNNFYPREAKVQWKVDNALQSGNSQESVTEQDSKDSTYSLSSTLTLSKADYEKHKVYACEVTHQGLSSPVTKSFNRGEC
notes: heterodimerized anti-glypican-3 IgG1; alteration in one H chain only; also called He Ab
B2: GpH7-A5/GpH7-B3 variant Y296_11K/GpL16-k0 (antibody, human IgG1, kappa)
heavy 1: not shown
heavy 2: not shown
light: B1 light
notes: as for B1
B3: GpH7-A5/GpH7-B3 variant Q295_05P/GpL16-k0 (antibody, human IgG1, kappa)
heavy 1: not shown
heavy 2: not shown
light: B1 light
notes: as for B1
B4: GpH7-A5/GpH7-B3 variant H268_08L/GpL16-k0 (antibody, human IgG1, kappa)
heavy 1: not shown
heavy 2: not shown
light: B1 light
notes: as for B1
B5: GpH7-A5/GpH7-B3 variant P271_04F/GpL16-k0 (antibody, human IgG1, kappa)
heavy 1: not shown
heavy 2: not shown
light: B1 light
notes: as for B1
B6: GpH7-A5/GpH7-B3 variant Y296_03V/GpL16-k0 (antibody, human IgG1, kappa)
heavy 1: not shown
heavy 2: not shown
light: B1 light
notes: as for B1
B7: GpH7-A5/GpH7-B3 variant S298_09D/GpL16-k0 (antibody, human IgG1, kappa)
heavy 1: not shown
heavy 2: not shown
light: B1 light
notes: as for B1
B8: GpH7-A5/GpH7-B3 variant Q295_18N/GpL16-k0 (antibody, human IgG1, kappa)
heavy 1: not shown
heavy 2: not shown
light: B1 light
notes: as for B1
B9: GpH7-A5/GpH7-B3 variant Y296_05P/GpL16-k0 (antibody, human IgG1, kappa)
heavy 1: not shown
heavy 2: not shown
light: B1 light
notes: as for B1
B10: GpH7-A5/GpH7-B3 variant Q295_11K/GpL16-k0 (antibody, human IgG1, kappa)
heavy 1: not shown
heavy 2: not shown
light: B1 light
notes: as for B1
B11: GpH7-A5/GpH7-B3 variant Q295_15Y/GpL16-k0 (antibody, human IgG1, kappa)
heavy 1: not shown
heavy 2: not shown
light: B1 light
notes: as for B1
B12: GpH7-A5/GpH7-B3 variant V266_16H/GpL16-k0 (antibody, human IgG1, kappa)
heavy 1: not shown
heavy 2: not shown
light: B1 light
notes: as for B1
B13: GpH7-A5/GpH7-B3 variant Q295_04F/GpL16-k0 (antibody, human IgG1, kappa)
heavy 1: not shown
heavy 2: not shown
light: B1 light
notes: as for B1
B14: GpH7-A5/GpH7-B3 variant S298_02A/GpL16-k0 (antibody, human IgG1, kappa)
heavy 1: not shown
heavy 2: not shown
light: B1 light
notes: heterodimerized anti-glypican-3 IgG1; alteration in one H chain only; also called He Ab; GpH7-A5/GpH7-B3-15-02A/GpL16-k0
B15: GpH7-A5/GpH7-B3 variant S298_07I/GpL16-k0 (antibody, human IgG1, kappa)
heavy 1: not shown
heavy 2: not shown
light: B1 light
notes: as for B1
B16: GpH7-A5/GpH7-B3 variant H268_06M/GpL16-k0 (antibody, human IgG1, kappa)
heavy 1: not shown
heavy 2: not shown
light: B1 light
notes: as for B1
B17: GpH7-A5/GpH7-B3 variant S298_04F/GpL16-k0 (antibody, human IgG1, kappa)
heavy 1: not shown
heavy 2: not shown
light: B1 light
notes: as for B1
B18: GpH7-A5/GpH7-B3 variant Q295_16H/GpL16-k0 (antibody, human IgG1, kappa)
heavy 1: not shown
heavy 2: not shown
light: B1 light
notes: as for B1
B19: GpH7-A5/GpH7-B3 variant S298_05P/GpL16-k0 (antibody, human IgG1, kappa)
heavy 1: not shown
heavy 2: not shown
light: B1 light
notes: as for B1
B20: GpH7-A5/GpH7-B3 variant P271_15Y/GpL16-k0 (antibody, human IgG1, kappa)
heavy 1: not shown
heavy 2: not shown
light: B1 light
notes: as for B1
B21: GpH7-A5/GpH7-B3 variant Y296_01G/GpL16-k0 (antibody, human IgG1, kappa)
heavy 1: not shown
heavy 2: not shown
light: B1 light
notes: as for B1
B22: GpH7-A5/GpH7-B3 variant Q295_03V/GpL16-k0 (antibody, human IgG1, kappa)
heavy 1: not shown
heavy 2: not shown
light: B1 light
notes: as for B1
B23: GpH7-A5/GpH7-B3 variant H268_11K/GpL16-k0 (antibody, human IgG1, kappa)
heavy 1: not shown
heavy 2: not shown
light: B1 light
notes: as for B1
B24: GpH7-A5/GpH7-B3 variant Q295_13S/GpL16-k0 (antibody, human IgG1, kappa)
heavy 1: not shown
heavy 2: not shown
light: B1 light
notes: as for B1
B25: GpH7-A5/GpH7-B3 variant Q295_20W/GpL16-k0 (antibody, human IgG1, kappa)
heavy 1: not shown
heavy 2: not shown
light: B1 light
notes: as for B1
B26: GpH7-A5/GpH7-B3 variant P271_20W/GpL16-k0 (antibody, human IgG1, kappa)
heavy 1: not shown
heavy 2: not shown
light: B1 light
notes: as for B1
B27: GpH7-A5/GpH7-B3 variant S298_03V/GpL16-k0 (antibody, human IgG1, kappa)
heavy 1: not shown
heavy 2: not shown
light: B1 light
notes: as for B1
B28: GpH7-A5/GpH7-B3 variant S298_01G/GpL16-k0 (antibody, human IgG1, kappa)
heavy 1: not shown
heavy 2: not shown
light: B1 light
notes: as for B1
B29: GpH7-A5/GpH7-B3 variant Q295_01G/GpL16-k0 (antibody, human IgG1, kappa)
heavy 1: not shown
heavy 2: not shown
light: B1 light
notes: as for B1
B30: GpH7-A5/GpH7-B3 variant Y296_12R/GpL16-k0 (antibody, human IgG1, kappa)
heavy 1: not shown
heavy 2: not shown
light: B1 light
notes: as for B1
B31: GpH7-A5/GpH7-B3 variant Q295_12R/GpL16-k0 (antibody, human IgG1, kappa)
heavy 1: not shown
heavy 2: not shown
light: B1 light
notes: as for B1

The target of one assay is T1, FcγRIIa R. Nature of the assay: SPR (Biacore); He/Con_2aR divided by He/Con_2b (FcγRIIa R over FcγRIIb).
For the molecule B1, the “He_2aR/2b (IIaR/IIb)” value is 1.3 ratio.
Same read-out and setting: the result for B2 reads 1.3 ratio; that for B3, 1.3 ratio; that for B4, 1.25 ratio.
Same read-out and setting: the result for B5 reads 1.28 ratio.
Same read-out and setting: the figure for B6 is 1.21 ratio; for B7 it is 1.4 ratio.
As to B8, the “He_2aR/2b (IIaR/IIb)” value was 1.27 ratio.
Consider B9, for which the “He_2aR/2b (IIaR/IIb)” value stood at 1.3 ratio.
Take B10: the “He_2aR/2b (IIaR/IIb)” value was found to be 1.26 ratio.
The same measure, in the same setting: the result for B11 reads 1.27 ratio; that for B12, 1.34 ratio.
As to B13, the “He_2aR/2b (IIaR/IIb)” value came to 1.29 ratio.
For the molecule B14, the “He_2aR/2b (IIaR/IIb)” value turned out to be 1.24 ratio.
For B15, the “He_2aR/2b (IIaR/IIb)” value was found to be 1.28 ratio.
Still for that read-out and setting: the result for B16 reads 1.23 ratio.
The same measure, in the same setting: the result for B17 reads 1.29 ratio; that for B18, 1.3 ratio; that for B19, 1.34 ratio.
On the same count and under the same terms, the figure for B20 is 1.35 ratio; for B21 it is 1.21 ratio; for B22 it is 1.2 ratio.
B23: the “He_2aR/2b (IIaR/IIb)” value turned out to be 1.21 ratio.
On the same count and under the same terms, the result for B24 reads 1.3 ratio.
Same read-out and setting: the figure for B25 is 1.35 ratio.
Regarding B26, the “He_2aR/2b (IIaR/IIb)” value is 1.33 ratio.
On the same count and under the same terms, the result for B27 reads 1.34 ratio; that for B28, 1.23 ratio.
Same read-out and setting: the figure for B29 is 1.32 ratio; for B30 it is 1.25 ratio.
Still for that read-out and setting: the figure for B31 is 1.27 ratio.

In a further assay the target is T1, FcγRIIa R. Nature of the assay: SPR (Biacore), captured antibody, FcγR as analyte; relative binding, control GpH7-A5/GpH7-B3/GpL16-k0 = 100. The protocol: (§1) The heterodimerized antibodies He Abs in which one of the H chains was introduced with an alteration were assayed for their binding activities to each activating FcγR and inhibitory FcγR according to the method described in Example 4. […] The activating FcγRs in FIGS. 26, 27, 28, and 29 are FcγRIa, FcγRIIa (R), FcγRIIa (H), and FcγRIIIa, respectively.
(§2) Analysis of interaction between objective antibody and the FcγR was carried out using Biacore T100 (GE Healthcare). HBS-EP+ (GE Healthcare) was used as the running buffer, and the measurement temperature was set to 25° C. Chips produced by immobilizing the antigen peptide by the amine coupling method to a Series S Sencor Chip CM5 (GE Healthcare), or alternatively, chips produced by allowing preliminarily biotinylated antigen peptides to interact with and immobilize onto a Series S Sensor Chip SA (certified) (GE Healthcare) were used. Antibodies of interest were captured onto an antigen peptide-immobilized chip, and allowed to interact to each FcγR diluted with running buffer. To regenerate and repeatedly use the chip, the antibodies captured on the chip were washed off by reacting 10 mM glycine-HCl, pH 1.5.
For orientation: Surface plasmon resonance follows binding to a sensor surface in real time, without labels.
In turn, B1 came in with a He/Con_2aR of 55.5 control = 100.
Still for that read-out and setting: the result for B2 reads 94.3 control = 100; that for B3, 87.4 control = 100.
With B4, the He/Con_2aR stood at 85 control = 100.
Molecule B5 yielded a He/Con_2aR of 75.9 control = 100.
Still for that read-out and setting: the result for B6 reads 96.2 control = 100.
The same measure, in the same setting: the figure for B7 is 67.8 control = 100.
Still for that read-out and setting: the result for B8 reads 82.4 control = 100.
In turn, B9 showed a He/Con_2aR of 47.7 control = 100.
Molecule B10 registered a He/Con_2aR of 88.9 control = 100.
The same measure, in the same setting: the result for B11 reads 82.8 control = 100; that for B12, 76.5 control = 100; that for B13, 83.6 control = 100.
For B14, the He/Con_2aR was found to be 91.2 control = 100.
The same measure, in the same setting: the figure for B15 is 90.1 control = 100.
On the same count and under the same terms, the result for B16 reads 81 control = 100.
Still for that read-out and setting: the result for B17 reads 84 control = 100.
In turn, B18 displayed a He/Con_2aR of 81.3 control = 100.
On the same count and under the same terms, the figure for B19 is 16 control = 100.
Still for that read-out and setting: the figure for B20 is 70.7 control = 100.
The same measure, in the same setting: the result for B21 reads 95.8 control = 100; that for B22, 91.2 control = 100; that for B23, 100 control = 100.
For the molecule B24, the He/Con_2aR worked out at 73.7 control = 100.
B25 displayed a He/Con_2aR of 60 control = 100.
The same measure, in the same setting: the result for B26 reads 77.3 control = 100; that for B27, 86.3 control = 100.
In turn, B28 came in with a He/Con_2aR of 98.8 control = 100.
The same measure, in the same setting: the figure for B29 is 60.9 control = 100; for B30 it is 99.6 control = 100; for B31 it is 83 control = 100.

For a further assay, the target named is T2, FcγRIIb. The description is as above. How it is done:
as §1, §2
B1 had a He/Con_2b of 42.5 control = 100.
Turning to B2, the He/Con_2b turned out to be 72.8 control = 100.
B3 came in with a He/Con_2b of 67.5 control = 100.
On the same count and under the same terms, the figure for B4 is 67.8 control = 100; for B5 it is 59.5 control = 100.
The same measure, in the same setting: the result for B6 reads 79.3 control = 100; that for B7, 48.3 control = 100.
With B8, the He/Con_2b came to 64.9 control = 100.
Still for that read-out and setting: the result for B9 reads 36.6 control = 100.
Same read-out and setting: the result for B10 reads 70.4 control = 100; that for B11, 65.4 control = 100.
The same measure, in the same setting: the result for B12 reads 57.2 control = 100; that for B13, 64.7 control = 100.
B14 returned a He/Con_2b of 73.4 control = 100.
Still for that read-out and setting: the result for B15 reads 70.6 control = 100; that for B16, 65.7 control = 100; that for B17, 65.4 control = 100.
In turn, B18 registered a He/Con_2b of 62.7 control = 100.
Same read-out and setting: the result for B19 reads 11.9 control = 100; that for B20, 52.3 control = 100; that for B21, 79.3 control = 100.
The same measure, in the same setting: the figure for B22 is 75.7 control = 100; for B23 it is 83 control = 100; for B24 it is 56.9 control = 100.
B25 yielded a He/Con_2b of 44.4 control = 100.
On the same count and under the same terms, the figure for B26 is 58.1 control = 100.
B27 came in with a He/Con_2b of 64.5 control = 100.
Same read-out and setting: the result for B28 reads 80.1 control = 100.
The same measure, in the same setting: the figure for B29 is 46 control = 100; for B30 it is 79.5 control = 100; for B31 it is 65.2 control = 100.
